Key:
[1] = target: T1, TFPI (tissue factor pathway inhibitor, full-length) (Homo sapiens, UniProt P10646 SEQ:1-276); test: competition; fails binding-competition criterion; CAT and FXa yes; settings: tags: American Diagnostica 4500PC/4900PC, E. coli expressed
Protocol: (§1) Each molecule was evaluated for binding to tissue factor pathway inhibitor (TFPI) in a binding-competition assay. For these experiments, 10 nM human TFPI (American Diagnostica, Stamford, Conn., catalog #4500PC) was incubated with trace amounts of radiolabeled ARC17480 and 5000 nM, 1666.67 nM, 555.56 nM, 185.19 nM, 61.73 nM, 20.58 nM, 6.86 nM, 2.29 nM, 0.76 nM or 0.25 nM of unlabeled competitor aptamer. ARC17480 was included as a competitor in every experiment as a control. For each molecule, the percentage of radiolabeled ARC17480 bound at each competitor aptamer concentration was used for analysis. The percentage of radiolabeled ARC17480 bound was plotted as a function of aptamer concentration and fit to the equation y=(max/(1+x/IC₅₀))+int, where y=the percentage of radiolabeled ARC17480 bound, x=the concentration of aptamer, max=the maximum radiolabeled ARC17480 bound, and int=the y-intercept, to generate an IC₅₀ value for binding-competition. The IC₅₀ of each aptamer was compared to the IC₅₀ of ARC17480 that was evaluated in the same experiment. A substitution was considered tolerated in the binding-competition assay if the IC₅₀ of that molecule was not more than 5-fold greater than that of ARC17480 evaluated in the same experiment. Tolerated substitutions are indicated in Table 38 as meeting the assay criteria (“yes”) or not meeting the assay criteria (“no”).

[2] = target: T1, TFPI (tissue factor pathway inhibitor, …); test: competition; fails binding-competition criterion; CAT yes; settings: tags: American Diagnostica 4500PC/4900PC, E. coli expressed
Protocol: The substituted ARC17480 molecules were assayed for binding and function. The assays used for this evaluation were the calibrated automated thrombogram (CAT) assay, a dot-blot binding-competition assay and a FXa activity assay. The results of these assays are summarized in Table 40 and depicted in FIG. 147. A mutation was considered tolerated for activity if it met the criteria of at least two of the three assays that were carried out. Mutations that are tolerated (“yes”) and not tolerated (“no”) are identified in Table 40. The experimental details and the criteria used for each assay are described in the following paragraphs. The molecules described in this example were first tested in the CAT assay and the dot-blot binding-competition assay. In most cases, molecules were only tested in the FXa assay if there was a discrepancy between the results in the CAT assay and the dot-blot binding-competition assay.
Each molecule was evaluated for binding to tissue factor pathway inhibitor (TFPI) in a binding-competition assay. […] The IC₅₀ of each aptamer was compared to the IC₅₀ of ARC17480 that was evaluated in the same experiment. A mutation was considered tolerated in the binding-competition assay if the IC₅₀ of that molecule was not more than 5-fold greater than that of ARC17480 evaluated in the same experiment. […]

Truncated TFPI-K1K2 = Truncated TFPI-K1K2 (UniProt P10646 SEQ:1-161); test: filter; no detectable binding up to 500 nM; settings: tags: American Diagnostica, E. coli expressed; label: radiolabel
Protocol: Trace amounts of radiolabeled ARC17480 were incubated with different concentrations of truncated TFPI-K1K2 (500 nM-0.008 nM) and the K3-C-terminal domain protein (500 nM-0.7 nM) (Table 1). […] Trace amounts of radiolabeled ARC17480 were incubated with different concentrations of the C-terminal peptide (10 μM-0.17 nM) (Table 1). Neutravidin (˜100 nM monomer) was then added to the binding solution to assist in the capture of aptamer:peptide complexes on a nitrocellulose filter. The amount of radiolabeled aptamer captured on a nitrocellulose filter was quantitated and compared to the total amount of radiolabeled aptamer to generate a binding curve, which is shown in FIG. 17B.

Kallikrein = Kallikrein (UniProt P03952;P03952 P03952:20-390,P03952:391-638); test: filter; no significant affinity up to 0.5-1 uM; settings: label: radiolabel
Heparin cofactor II = target: T2, Heparin cofactor II (UniProt P05546 P05546:20-499); test: filter; no significant affinity up to 0.5-1 uM; settings: label: radiolabel
T2 sequence: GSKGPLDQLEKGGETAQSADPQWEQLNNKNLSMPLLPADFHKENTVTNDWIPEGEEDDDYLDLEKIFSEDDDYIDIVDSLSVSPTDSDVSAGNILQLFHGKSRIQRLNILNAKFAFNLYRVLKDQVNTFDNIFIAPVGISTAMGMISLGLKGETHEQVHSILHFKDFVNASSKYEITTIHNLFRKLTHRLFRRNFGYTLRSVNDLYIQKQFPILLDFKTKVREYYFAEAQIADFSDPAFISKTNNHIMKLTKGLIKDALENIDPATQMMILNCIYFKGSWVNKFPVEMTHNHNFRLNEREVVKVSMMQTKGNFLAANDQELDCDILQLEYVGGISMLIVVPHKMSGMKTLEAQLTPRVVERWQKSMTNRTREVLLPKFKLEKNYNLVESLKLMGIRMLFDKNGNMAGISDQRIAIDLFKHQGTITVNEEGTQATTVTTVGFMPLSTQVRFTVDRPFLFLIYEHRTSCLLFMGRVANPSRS

Factor VIIa = Factor VIIa (UniProt P08709;P08709 P08709:61-212,P08709:213-466); test: filter; no significant affinity up to 0.5-1 uM; settings: label: radiolabel
Factor Xa = Factor Xa (UniProt P00742;P00742 P00742:41-179,P00742:235-488); test: filter; no significant affinity up to 0.5-1 uM; settings: label: radiolabel
TFPI-2 = target: T3, TFPI-2 (UniProt P48307 P48307:23-235); test: filter; no significant affinity up to 0.5-1 uM; settings: label: radiolabel
T3 sequence: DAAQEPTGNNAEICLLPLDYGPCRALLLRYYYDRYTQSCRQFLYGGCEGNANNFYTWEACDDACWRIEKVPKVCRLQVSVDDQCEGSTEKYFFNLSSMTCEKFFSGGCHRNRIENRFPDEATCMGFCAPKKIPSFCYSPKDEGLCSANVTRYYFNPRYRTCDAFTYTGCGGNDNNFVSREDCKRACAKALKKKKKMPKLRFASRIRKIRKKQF

Factor XIa = Factor XIa (UniProt P03951;P03951 P03951:19-387,P03951:388-625); test: filter; no significant affinity up to 0.5-1 uM; settings: chain copies: 2; label: radiolabel
Antithrombin (ATIII) = Antithrombin (ATIII) (UniProt P01008 P01008:33-464); test: filter; no significant affinity up to 0.5-1 uM; settings: label: radiolabel
Factor Va = Factor Va (UniProt P12259;P12259 P12259:29-737,P12259:1574-2224); test: filter; no significant affinity up to 0.5-1 uM; settings: label: radiolabel
Factor IXa = Factor IXa (UniProt P00740;P00740 P00740:47-191,P00740:227-461); test: filter; no significant affinity up to 0.5-1 uM; settings: label: radiolabel
[3] = target: alpha-1 antitrypsin (serpin-A1) (UniProt P01009 P01009:25-418); test: filter; no significant affinity up to 0.5-1 uM; settings: label: radiolabel
Prothrombin = Prothrombin (UniProt P00734 P00734:44-622); test: filter; no significant affinity up to 0.5-1 uM; settings: label: radiolabel
Plasmin = Plasmin (UniProt P00747;P00747 P00747:97-580,P00747:581-810); test: filter; no significant affinity up to 0.5-1 uM; settings: label: radiolabel
alpha-Thrombin = alpha-Thrombin (UniProt P00734;P00734 P00734:328-363,P00734:364-622); test: filter; no significant affinity up to 0.5-1 uM
[4] = target: T1, TFPI (tissue factor pathway inhibitor, …); test: competition; negative control, no competition with ARC17480 in dot blot; settings: tags: American Diagnostica 4500PC/4900PC, E. coli expressed
[5] = target: T1, TFPI (tissue factor pathway inhibitor, …); test: competition; competition with 20 nM ARC19499, plate assay; settings: tags: American Diagnostica 4500PC/4900PC, E. coli expressed
Protocol: In order to assess the affinity of ARC19498 towards TFPI protein, an ARC19499:TFPI binding competition assay was set up. Recombinant human TFPI protein (0.5 mg/mL) was diluted in DPBS to a final concentration of 15 μg/mL, and 100 μL was added to a 96-well Maxisorb plate and incubated overnight at 4° C. The TFPI solution was then removed and the plate was subsequently washed 3 times with 200 μL wash buffer (DPBS+0.05% Tween 20) at room temperature. The plate was then blocked with 200 μL of 10 mg/mL BSA in DPBS for 30 minutes at room temperature. The BSA blocking solution was then removed and the plate was washed again 3 times with 200 μL wash buffer. ARC19498 was serially diluted and mixed at different concentrations with 20 nM ARC19499 in DPBS in 0.1% BSA. The ARC19498:ARC19499 mixtures were added to the plate and incubated for 3 hours at room temperature. After washing 3 times with 200 μL wash buffer, 100 μL of 0.5 μg/mL rabbit monoclonal anti-PEG antibody (Epitomics) was added to the plate and incubated for 60 minutes at room temperature. The anti-PEG antibody solution was then removed and the plate was washed as described above. […] The assay plate was then read at 450 nm using a Victor³V 1420 multilabel counter (Perkin Elmer). […] The IC₅₀ was calculated based on 4-parameter logistics using Graphpad Prism 4 software.

[6] = target: T1, TFPI (tissue factor pathway inhibitor, …); test: competition; fails binding-competition criterion; FXa yes; settings: tags: American Diagnostica 4500PC/4900PC, E. coli expressed
Protocol: as §1

Binder: UAUACUUGGCUCGUUAGGUGCGUAU (mixed, 2'-OMe A/G/U, 2'-deoxy C, 3' idT) [ARC33889]
- binding signal [1]: > 5 fold IC50 of ARC17480

Binder: GGAAUAUACUUGGCUCGUUAUGUGCGUAUAUA (mixed, 2'-OMe A/G/U, 2'-deoxy C, 3' idT) [ARC33169]
- binding signal [2]: > 5 fold IC50 of ARC17480

Binder: GGAAUAUACUUGGCUCGUUAGGUGCGUAUAUA (mixed, 2'-OMe A/G/U, 2'-deoxy C, 3' idT) [ARC17480]
- binding result (Truncated TFPI-K1K2): no binding
- binding result (Kallikrein): no binding
- binding result (Heparin cofactor II): no binding
- binding result (Factor VIIa): no binding
- binding result (Factor Xa): no binding
- binding result (TFPI-2): no binding
- binding result (Factor XIa): no binding
- binding result (Antithrombin (ATIII)): no binding
- binding result (Factor Va): no binding
- binding result (Factor IXa): no binding
- binding result [3]: no binding
- binding result (Prothrombin): no binding
- binding result (Plasmin): no binding
- binding result (alpha-Thrombin): no binding

Binder: GGAAUAUACUUGGCUGCUUAGGUGCGUAUAUA (mixed, 2'-OMe A/G/U, 2'-deoxy C, 3' idT) [ARC32603]
- binding result [4]: no binding

Binder: GGAAUAUACUUGGCUCGUUAGGUGCGUAUAUA (mixed, 5'-hexylamine, 2'-OMe A/G/U, 2'-deoxy C, 3' idT) [ARC19498]
- IC50 [5]: 20 nM

Binder: GGAAUAUACUUGGCUCGUAGGUGCGUAUAUA (mixed, 2'-OMe A/G/U, 2'-deoxy C, 3' idT) [ARC33132]
- binding signal [6]: > 5 fold IC50 of ARC17480

From patent publication US20110281938, “APTAMERS TO TISSUE FACTOR PATHWAY INHIBITOR AND THEIR USE AS BLEEDING DISORDER THERAPEUTICS” (Baxter Healthcare S.A., published 2011)
